Results taken from paper PMC6842305 (Journal of medicinal chemistry, 2018).

Biological target: Truncated WDR5 (Δ23, residues 22–334) (UniProt P61964 22-334)
Experiment: NMR titration

## Ac-ARTEVHLRKS-NH2 [MLL1 10mer peptide Ac-ARTEVHLRKS-NH2]
  binding result: binds
